According to article PMC11046469, “Leveraging a Phage-Encoded Noncanonical Amino Acid: A Novel Pathway to Potent and Selective Epigenetic Reader Protein Inhibitors” (ACS Central Science, 2024):

These substances were tested against T1, ENL YEATS domain (AviSUMO-ENL YEATS) (Homo sapiens, UniProt Q03111) (assay: Phage panning of BuK-containing 7-mer library against AviSUMO-ENL YEATS with Illumina NGS abundance). Settings: sheet ENLR3: round 3 of panning against ENL YEATS; TAG = amber codon (BuK); 7-mer library positions V1-V7.
T1 construct: encoding ENL YEATS (aa 1−148) was cloned in pET28a-; made in house; host or cells: E. coli BL21(DE3pLysS), co-expressed with BirA (pBirAcm)
T1 sequence (Q03111 1-148): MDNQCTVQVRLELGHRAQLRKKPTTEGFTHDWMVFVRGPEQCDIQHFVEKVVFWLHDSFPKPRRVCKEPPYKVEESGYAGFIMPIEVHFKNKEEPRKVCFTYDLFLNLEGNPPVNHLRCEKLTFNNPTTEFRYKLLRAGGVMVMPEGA
Excerpt: We utilized a previously established amber-obligate 7-mer phage display library to develop a phage display library enriched with BuK-containing 7-mer peptides. For detailed characterizations, including analysis of amber codon percentages, NNK trinucleotide analysis, and amino acid distribution at each position within the library, please refer to the work of Tharp et al.[10] Furthermore, the comprehensive raw NGS data for the amber-obligate 7-mer phage library can be found in the NCBI’s Sequence Read Archive, under the accession ID PRJNA606283. To produce the BuK-containing 7-mer phage library, the phages were produced in the presence of 5 mM BuK using TOP10 cells harboring the following three plasmids: (1) pADL-gIII, which contains the 7-mer amber-obligate peptide-coding DNA library positioned at the N-terminus of M13 pIII gene; (2) pCDF-BuKRS, which encodes BuKRS and its cognate tRNA^Pyl for the genetic incorporation of BuK at amber codons in the 7-mer library; and (3) M13KO7TAA, a helper phage plasmid engineered to have a TAA mutation at pIII so that its lack of a functional pIII allows an efficient multivalent display of the 7-mer library. The ENL YEATS domain containing an N-terminal AviSUMO-Tag was recombinantly expressed in E. coli together with BirA, a biotin ligase, for site-specific biotinylation at the AviTag. The biotinylated AviSUMO-ENL YEATS was immobilized on streptavidin-coated magnetic beads for panning with the BuK-containing phages. […] Phage libraries collected from the first and third rounds of selection were sequenced using Illumina next generation sequencing (NGS) and all sequenced data are available through the NCBI SRA database (Project PRJNA1041845). To prevent possible sequencing errors from affecting conclusions, sequences were filtered using previously published paired-end processing,[10] where any sequences containing more than one mismatch in the nonlibrary region or any mismatch in the library region were discarded. The NGS data provided DNA sequences encompassing both the library and nonlibrary regions. In our analysis, we included data from the nonlibrary region as a stringent quality control measure to filter out low-quality data. For our analysis, we utilized 51 nucleotides from the NGS output, with 21 nucleotides encoding the library region and an additional 30 nucleotides for the nonlibrary region. […] Among all the sequences, only 85 of them contained more than 100 copies (blue area), while the remaining sequences all had low abundances (<10^2 copies, dark and light gray areas), which constituted 85.2% of the first round population. After three panning rounds, the selection converged to two highly enriched sequences: YDVYCYX (ENL-S1) and WWIIEXG (ENL-S2, X denotes BuK). Out of 551 different unique sequences collected from the third round, ENL-S1 and ENL-S2 represented 85% of the entire library (Figure 2A and Figures S6–S8). Both peptide sequences corresponded to their own unique DNA sequence, rather than there being varying codons encoding the same amino acids (Figure S7). […] Two motifs were found in the majority of sequences with high abundance (greater than 0.1%) (Figure S6). A Y(C/L)Y pattern was identified in the residues adjacent to BuK in four of the eight top sequences. Also, an H(L/Y)(T/V)LFXG (X denotes BuK) motif was observed, albeit at lower abundances, in two of the top sequences. In the initial round of selection, we observed that only a small percentage of phages were eluted, which aligns with typical outcomes in phage selection experiments since only a low copy number of phages can bind to the target.[10],[45] With each successive round of selection, we noted a gradual increase in the percentage of phages eluted. This incremental, rather than sharp, increase was attributed to the intensification of selection pressures, such as the application of more stringent washing protocols. We aimed for the incremental increase to retain potent clones with low copy numbers from the previous selection cycle. […]

Row | Substance | n (number of NGS reads of the unique amino acid sequence) | percent (share of sequence reads) [%]
1 | FLTRCML | 1 | 0.0009106
2 | LLIIETAGG | 1 | 0.0009106
3 | ATAGSFHYL | 1 | 0.0009106
4 | WCIIETAGG | 19 | 0.0173
5 | QCGPRTAGN | 3 | 0.002732
6 | CHNWICTAG | 1 | 0.0009106
7 | FDVYCYTAG | 2 | 0.001821
8 | YDVCCYTAG | 6 | 0.005464
9 | HTAGSFCRL | 1 | 0.0009106
10 | FLFDTTAGT | 1 | 0.0009106
11 | WWIIVTAGG | 4 | 0.003642
12 | LLWTAGLAS | 1 | 0.0009106
13 | NCPTAGFNL | 1 | 0.0009106
14 | HSWFTAGDG | 1 | 0.0009106
15 | WWIITAGTAGG | 19 | 0.0173
16 | IRCHPWTAG | 1 | 0.0009106
17 | YDVYCYW | 26 | 0.02368
18 | DLVYCYTAG | 1 | 0.0009106
19 | DDVYCYTAG | 7 | 0.006374
20 | HIKCTAGII | 1 | 0.0009106
21 | YDVYFYTAG | 47 | 0.0428
22 | CYVCRFL | 1 | 0.0009106
23 | WSIIETAGG | 3 | 0.002732
24 | HYVLFTAGW | 1 | 0.0009106

Row | Substance | n (number of NGS reads of the unique amino acid sequence) | percent (share of sequence reads) [%]
25 | YDVYWYTAG | 3 | 0.002732
26 | YDDYCYTAG | 2 | 0.001821
27 | YDVYCYQ | 15 | 0.01366
28 | CYDLCTAGG | 21 | 0.01912
29 | MTAGGLRHS | 1 | 0.0009106
30 | QRGPRTAGD | 2 | 0.001821
31 | CYPTAGKCC | 1 | 0.0009106
32 | ILATAGSVN | 1 | 0.0009106
33 | WWIIEQG | 2 | 0.001821
34 | WWIIEYG | 29 | 0.02641
35 | HCVLFTAGG | 1 | 0.0009106
36 | FLYTAGMPV | 1 | 0.0009106
37 | WLIIETAGG | 30 | 0.02732
38 | CCWTAGGGN | 2 | 0.001821
39 | YDVYCCTAG | 5 | 0.004553
40 | WWIIETAGW | 27 | 0.02459
41 | YDAYCYTAG | 11 | 0.01002
42 | QCGPQTAGD | 2 | 0.001821
43 | HYVLFTAGG | 612 | 0.5573
44 | WNCLYTAGD | 4 | 0.003642
45 | YLYTAGFPC | 5 | 0.004553
46 | WRIIETAGG | 9 | 0.008196
47 | YDVYYYTAG | 7 | 0.006374
48 | FTWSTAGED | 1 | 0.0009106

Same assay, conditions: sheet ENLR3: round 3 of selection against ENL YEATS; TAG = amber codon (BuK)

Row | Substance | n (number of NGS reads of the 7-mer sequence V1-V7) | percent (share of NGS reads of the 7-mer sequence V1-V7) [%]
49 | RWVAGPTAG | 1 | 0.0009106
50 | YGTAGHDFF | 1 | 0.0009106
51 | YLTLFTAGG | 1 | 0.0009106
52 | TAGMVHIMV | 1 | 0.0009106
53 | SAVVATAGG | 1 | 0.0009106
54 | QTAGERNAC | 1 | 0.0009106
55 | YDVYCYE | 1 | 0.0009106
56 | SMMTAGSST | 1 | 0.0009106
57 | QCGPRTAGE | 1 | 0.0009106
58 | STAGTEIYC | 1 | 0.0009106
59 | NYVLFTAGG | 1 | 0.0009106
60 | QCGPRWD | 1 | 0.0009106
61 | VATAGMWPC | 1 | 0.0009106
62 | SGVGFTAGS | 1 | 0.0009106
63 | TAGNVCGTV | 1 | 0.0009106
64 | YVGPLTAGG | 1 | 0.0009106
65 | WLAWRHL | 1 | 0.0009106
66 | NTAGNIGLY | 1 | 0.0009106
67 | WWITETAGG | 1 | 0.0009106
68 | QCGPRTAGG | 1 | 0.0009106
